Measured values from article PMC7479153, “GFP fluorescence tagging alters dynamin-related protein 1 oligomerization dynamics and creates disassembly-refractory puncta to mediate mitochondrial fission” (Scientific Reports, 2020).

Columns and labels:
[1] = biological target: the molecule itself; assay: cell-based or functional assay
[2] = biological target: the molecule itself; assay: SEC-MALS; Superose 6 10/300 GL, 20 mM HEPES pH 7.5, 150 mM KCl, 1 mM DTT; loading protein concentration varied, 500 uL injected; no nucleotide
[3] = biological target: the molecule itself; assay: number and brightness (N&B) analysis; living transfected wt MEFs, Drp1-null MEFs and HeLa cells, 37 C; brightness normalised to that of mEGFP alone taken as the monomer; puncta on mitochondria left out
[4] = biological target: the molecule itself; assay: fluorescence correlation spectroscopy (single-point FCS); 0.5 uM fluorescently labeled protein in solution, 25 C, 20 mM HEPES pH 7.5, 150 mM KCl, 1 mM DTT; without and with 1 mM GMP-PCP and 1 mM MgCl2 (30 min); unlabeled Drp1-wt (1 uM final, 2X molar excess) added where it is the partner

B1: mEGFP-Drp1 (N-terminally mEGFP-tagged Drp1 isoform 3), recombinant from E. coli (natural protein, human, UniProt O00429-4 1-699, looked up)
chain: MEALIPVINKLQDVFNTVGADIIQLPQIVVVGTQSSGKSSVLESLVGRDLLPRGTGIVTRRPLILQLVHVSQEDKRKTTGEENGVEAEEWGKFLHTKNKLYTDFDEIRQEIENETERISGNNKGVSPEPIHLKIFSPNVVNLTLVDLPGMTKVPVGDQPKDIELQIRELILRFISNPNSIILAVTAANTDMATSEALKISREVDPDGRRTLAVITKLDLMDAGTDAMDVLMGRVIPVKLGIIGVVNRSQLDINNKKSVTDSIRDEYAFLQKKYPSLANRNGTKYLARTLNRLLMHHIRDCLPELKTRINVLAAQYQSLLNSYGEPVDDKSATLLQLITKFATEYCNTIEGTAKYIETSELCGGARICYIFHETFGRTLESVDPLGGLNTIDILTAIRNATGPRPALFVPEVSFELLVKRQIKRLEEPSLRCVELVHEEMQRIIQHCSNYSTQELLRFPKLHDAIVEVVTCLLRKRLPVTNEMVHNLVAIELAYINTKHPDFADACGLMNNNIEEQRRNRLARELPSAVSRDKVASGGGGVGDGVQEPTTGNWRGMLKTSKAEELLAEEKSKPIPIMPASPQKGHAVNLLDVPVPVARKLSAREQRDCEVIERLIKSYFLIVRKNIQDSVPKAVMHFLVNHVKDTLQSELVGQLYKSSLLDDLLTESEDMAQRRKEAADMLKALQGASQIIAEIRETHLW
notes: dynamin-related protein 1 (Drp1), human, isoform 3, printed length 699 aa; mEGFP is EGFP with A206K (also denoted A207K); fusion sub-cloned from pEGFP-C1 into pET28a; Monomer ~111 kDa as printed; source: E. coli (pET28a), purified to apparent homogeneity, then gel filtration (ENrich SEC 650); not shown: mEGFP, N-terminal, kept
**Q.** B1 was tested. Which “decrease in GTP turnover (kcat) relative to Drp1-wt, basal and cardiolipin-stimulated, malachite green assay, 0.5 uM protein” value [1] did it give?
**A.** > 50%

**Q.** And the “stoichiometry N” value [2]?
**A.** ≥ 4

B2: Drp1-mEGFP (C-terminally mEGFP-tagged Drp1 isoform 3), recombinant from E. coli (natural protein, human, UniProt O00429-4 1-699, looked up)
chain: B1 chain
**Q.** Which “decrease in GTP turnover (kcat) relative to Drp1-wt, basal and cardiolipin-stimulated, malachite green assay, 0.5 uM protein” value [1] does the source give for B2 here?
**A.** > 50%

B3: mEGFP-Drp1 (N-terminally mEGFP-tagged Drp1 isoform 3), expressed in mammalian cells (natural protein, human, UniProt O00429-4 1-699, looked up)
chain: B1 chain
notes: dynamin-related protein 1 (Drp1), human, isoform 3, printed length 699 aa; mEGFP is EGFP with A206K; In wt MEFs and HeLa cells endogenous Drp1 is also present; also called cytosolic mEGFP-Drp1; source: wt MEFs, Drp1-null MEFs and HeLa cells, transfected (pEGFP-C1), in living cells; not shown: mEGFP, N-terminal, kept
**Q.** B3 was tested. Which “stoichiometry N” value [3] did it give?
**A.** ~4

B4: Drp1-AF488 (Drp1 labeled on surface Cys with Alexa Fluor 488 C5-maleimide) (natural protein, human, UniProt O00429-4 1-699, looked up)
chain: B1 chain
modifications: AF488 maleimide on Cys; primary targets of thiol modification are surface residues C505 and C607; ~2 mol dye/mol protein
notes: dynamin-related protein 1 (Drp1), human, isoform 3, printed length 699 aa; also called AF488-labeled Drp1; dye-labeled Drp1; source: E. coli, purified, then labeled with thiol-reactive AF488 maleimide
**Q.** Does B4 bind [4]?
**A.** binds

B5: Drp1-BODIPY FL (Drp1 labeled on surface Cys with BODIPY-FL C1-iodoacetamide) (natural protein, human, UniProt O00429-4 1-699, looked up)
chain: B1 chain
modifications: BODIPY-FL iodoacetamide on Cys; primary targets of thiol modification are surface residues C505 and C607; ~2 mol dye/mol protein
notes: dynamin-related protein 1 (Drp1), human, isoform 3, printed length 699 aa; also called BODIPY-labeled Drp1; dye-labeled Drp1; source: E. coli, purified, then labeled with thiol-reactive BODIPY-FL iodoacetamide
**Q.** Does B5 bind [4]?
**A.** binds

B6: Drp1-wt (N-terminal 6XHis-tagged human dynamin-related protein 1, isoform 3) (natural protein, UniProt O00429-4 1-699, looked up)
chain: B1 chain
notes: dynamin-related protein 1 (Drp1), human, isoform 3, printed length 699 aa; also called unlabeled Drp1-wt; native-like His-tagged Drp1; source: E. coli, purified to apparent homogeneity, then gel filtration (ENrich SEC 650)
**Q.** B6 was tested. Which “stoichiometry N” value [2] did it give?
**A.** ≥ 2
